From patent US20240254220A1, “COMBINED THERAPY USING ANTI-CD300C ANTIBODY” (CentricsBio, Inc., priority 2021, published 2024)

Key:
[1] = test system: mouse macrophages (Raw264.7); test: TNF-α production in mouse macrophages (M1 differentiation); type: cell-based; conditions: Raw264.7, 10 μg/mL
Description: In order to identify whether anti-CD300c monoclonal antibodies can promote the differentiation from mouse macrophages into M1 macrophages, mouse macrophages (Raw264.7) were dispensed into a 96-well plate at a concentration of 1×10^4 cells/well, and then treated with 10 μg/mL CL7, followed by incubation. Thereafter, the production amount of TNF-α was identified by an ELISA kit (Human TNF-α Quantikine kit, R&D Systems).

[2] = test system: colon cancer cell line (CT26) tumor; test: Tumor immune cell FACS analysis in CT26 syngeneic mouse tumor model; type: in vivo, BALB/c mice
Text: In order to identify effects of the anti-CD300c monoclonal antibody CL7 on tumor-associated macrophages under in vivo conditions, a colon cancer cell line (CT26) at 2×10^5 cells was transplanted by subcutaneous injection into 8-week-old BALB/c mice to prepare syngeneic mouse tumor models. Animal breeding and experiments were all conducted in a specific pathogen free (SPF) facility. In addition, 12 days after transplantation of the colon cancer cell line, the mice with a tumor size of 50 mm^3 to 100 mm^3 were separately administered the anti-CD300c monoclonal antibody, and for a control group, the mice were injected with the same amount of phosphate buffered saline (PBS). The mice were intraperitoneally injected with 25 mg/kg of each substance twice a week for two weeks over a total of 4 times. On day 25 after the injection, the mice were sacrificed, and the tumor tissue was collected from each of six mice in the CL7 25 mg/kg administration group showing a highest antitumor effect compared with the control group. The tumor tissue was taken out and then incubated at 37° C. for 1 hour in a mixed solution of collagenase D (20 mg/mL) and DNase I (2 mg/mL). Thereafter, the resultant product was filtered through a 70 μm cell strainer, followed by the lysis of red blood cells, and then again filtered through a nylon mesh. Subsequently, the single cell suspension was blocked with CD16/32 antibody (from Invitrogen), and the cells were stained with a staining solution for checking cell viability (from Invitrogen), and antibodies (from Abcam) to the total macrophage marker F4/80 and the M1 macrophage marker iNOS. Then, the data were read with CytoFLEX flow cytometer and analyzed with FlowJo software.
In order to identify effects of the anti-CD300c monoclonal antibody CL7 on CD8+ T cells under in vivo conditions, syngeneic mouse tumor models were prepared as in Experimental Example 3.2 and administered the anti-CD300c monoclonal antibody at the same concentration.
(§1) On day 25 after the injection, the mice were sacrificed, and the tumor tissue was collected from each of six mice in the CL7 25 mg/kg administration group showing a highest antitumor effect compared with the control group. The tumor tissue was taken out and then incubated at 37° C. for 1 hour in a mixed solution of collagenase D (20 mg/mL) and DNase I (2 mg/mL). Thereafter, the resultant product was filtered through a 70 μm cell strainer, followed by the lysis of red blood cells, and then again filtered through a nylon mesh. Subsequently, the single cell suspension was blocked with CD16/32 antibody (from Invitrogen), and the cells were stained with a staining solution for checking cell viability and a CD8+ antibody (from Abcam) and a CD4+ antibody (from Abcam). Thereafter, the data were read with CytoFLEX flow cytometer and analyzed with FlowJo software.
as §1, with “In order to identify whether the anti-CD300c monoclonal antibody CL7 increases the number of CD8+ T cells in a tumor-specific manner, syngeneic mouse tumor models were prepared as in Experimental Example 3.2 and administered the anti-CD300c monoclonal antibody at the same concentration. On” for “On”, “AH1 tetramer” for “a CD8+ antibody (from Abcam) and a CD4+”, “software. […]” for “software.”

[3] = test system: colon cancer cell line (CT26) tumor; test: Tumor-infiltrating lymphocytes and macrophages in CT26 cancer tissue after combined use; type: in vivo, BALB/c mice
Text: In order to identify effects of the anti-CD300c monoclonal antibody on tumor-infiltrating lymphocytes (TIL) in a tumor microenvironment (TME), on day 25 of an experiment conducted by the same method as in Experimental Example 7.1, the mice were euthanized, and injected intravascularly with 1% paraformaldehyde (PFA) to perform perfusion, and then the cancer tissue was obtained. The obtained cancer tissue was fixed using 1% PFA, and sequentially dehydrated using 10%, 20%, and 30% sucrose solutions. The dehydrated cancer tissue was frozen in OCT compound (optimal cutting temperature compound), and then the cancer tissue was sectioned to a thickness of 50 μm using a cryotome. The tissue was incubated at 37° C. for 1 hour in a mixed solution of collagenase D (20 mg/mL) and DNase I (2 mg/mL). Thereafter, the resultant product was filtered through a 70 μm cell strainer, followed by the lysis of red blood cells, and then again filtered through a nylon mesh for making single cells. To suppress non-specific reactions in the single cell suspension, the cells were incubated with a CD16/32 antibody (Invitrogen) for 1 hour, and then cell viability was identified, and CD8+ T cells and CD31+ cancer blood vessel cells, which are tumor-infiltrating lymphocyte markers, were stained.
In order to identify whether the anti-CD300c monoclonal antibody increases M1 macrophages in the cancer tissue of mouse models, the cancer tissue sections prepared by the same method as in Experimental Example 7.2 were stained with antibodies to the M1 macrophage marker iNOS and the M2 macrophage marker CD206, and analyzed by FACS.
In order to identify whether the anti-CD300c monoclonal antibody CL7 promotes CD8+ T cell immunity in mouse tumor models, on day 25 of the experiment conducted by the same method as in Experimental Example 7.1, the mice were euthanized, and injected intravascularly with 1% paraformaldehyde (PFA) to perform perfusion, and then the cancer tissue was obtained. The obtained cancer tissue was fixed using 1% PFA, and sequentially dehydrated using 10%, 20%, and 30% sucrose solutions. […]

[4] = Experimental Example 3.7, 25 mg/kg i.p., day 25
[5] = CT26 cancer tissue, day 25, FACS

B1: CL7: anti-CD300c monoclonal antibody, VH3VL1 phage library, VH SEQ ID 327, VL SEQ ID 328 (antibody, V domains shown)
VH: EVQLLESGGGLVQPGGSLRLSCAASGFTFSRYAMSWVRQAPGKGLEWVSAISGSGGSTYYADSVKGRFTISRDNSKNTLYLQMNSLRAEDTAVYYCARSSQGIFDIWGQGTLVTVSS
VL: QSVLTQPPSASGTPGQRVTISCSGNNIGTRRVHWYQQLPDTAPKLLIYSKNNRPSGVPDRFSGSKSGTSASLAISGLRSEDEADYYCAAWDDSLSGPVFGGGTKLTVL
modifications: CL7 Heavy Chain Variable Region; CL7 Light Chain Variable Region
[1]
  production level of TNF-α: increased
[2]; 25 mg/kg i.p. twice a week, 4 times, day 25, vs PBS
  expression level of M1 type tumor-associated macrophages in cancer tissue: increased
[2]; 25 mg/kg i.p., day 25
  CD8+ T cells compared with Treg T cells: increased
  expression of AH1 tetramer in CD8+ T cells: increased
[2]; 25 mg/kg i.p., day 25, CD8+/CD4+ staining
  number of T cells in tumor: increased
[2]; [4]
  activated CD8+ T cells: significantly increased
  regulatory T cells: inhibited
  tumor-associated macrophage phenotype: repolarized tumor-associated macrophages towards M1 phenotype
[3]; [5]
  M1 macrophages (iNOS) in cancer tissue: remarkably increased
  M2 macrophages (CD206) in cancer tissue: hardly observed
[3]; Experimental Example 7.4, CT26 cancer tissue sections, day 25
  CD8+ T cells in cancer tissue: remarkably increased
